Laboratory results published in patent US20040235062A1, “Method of analyzing protein occurring in cell or substance interacting with the protein” (priority 2002, published 2004).

Molecular target: T1, GC-A receptors (Homo sapiens, UniProt P16066)
T1 construct: expressed in transfected cells; host or cells: CHO/GC-A cells (Chinese hamster ovary), membrane fraction
T1 sequence (P16066 33-1061): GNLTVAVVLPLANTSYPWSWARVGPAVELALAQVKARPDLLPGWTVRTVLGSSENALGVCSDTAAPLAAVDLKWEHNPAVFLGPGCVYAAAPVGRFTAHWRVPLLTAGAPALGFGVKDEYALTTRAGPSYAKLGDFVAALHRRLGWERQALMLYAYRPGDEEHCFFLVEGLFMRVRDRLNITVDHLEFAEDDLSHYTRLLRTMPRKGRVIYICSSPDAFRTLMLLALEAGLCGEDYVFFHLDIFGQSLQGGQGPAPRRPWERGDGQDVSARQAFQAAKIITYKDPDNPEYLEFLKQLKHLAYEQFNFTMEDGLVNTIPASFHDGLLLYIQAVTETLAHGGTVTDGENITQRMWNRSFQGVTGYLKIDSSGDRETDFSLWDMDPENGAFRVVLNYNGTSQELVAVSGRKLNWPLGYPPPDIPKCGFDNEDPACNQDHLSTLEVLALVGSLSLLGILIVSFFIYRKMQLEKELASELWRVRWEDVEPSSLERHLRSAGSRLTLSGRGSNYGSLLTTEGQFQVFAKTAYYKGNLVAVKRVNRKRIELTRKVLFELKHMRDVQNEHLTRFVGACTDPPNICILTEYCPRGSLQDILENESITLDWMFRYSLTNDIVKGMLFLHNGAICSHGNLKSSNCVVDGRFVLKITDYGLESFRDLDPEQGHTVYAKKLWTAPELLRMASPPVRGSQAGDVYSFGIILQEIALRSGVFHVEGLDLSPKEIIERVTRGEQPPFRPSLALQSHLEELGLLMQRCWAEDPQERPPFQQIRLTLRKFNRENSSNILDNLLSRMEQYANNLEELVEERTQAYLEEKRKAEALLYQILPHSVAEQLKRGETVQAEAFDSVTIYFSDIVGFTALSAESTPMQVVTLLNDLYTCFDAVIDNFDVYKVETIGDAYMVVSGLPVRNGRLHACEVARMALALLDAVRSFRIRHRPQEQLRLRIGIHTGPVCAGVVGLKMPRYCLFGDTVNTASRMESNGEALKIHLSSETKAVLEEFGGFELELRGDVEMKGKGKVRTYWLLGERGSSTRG
Assay: Selectivity experiment: peptide mixture bound to GC-A expressed cell membrane fraction, MALDI-TOF-MS
Type: binding
Settings: 10 pmol/μl each, CHO/GC-A vs CHO host cell membrane fraction
Protocol: An albumin-coated membrane fraction (CHO/GC-A cells and CHO host cells) was obtained in the same manner as in Step 1. and Step 2. of Example 1.
The resulting suspension was centrifuged to obtain pellets. The resulting pellets were further washed with 500 μl of distilled water, and centrifugation was performed again to obtain a ligand-bound membrane fraction.
MALDI-TOF-MS measurement was made in the same manner as in Step 4. of Example 1.

Substance | interaction with GC-A receptors (judgement)
angiotensin I (DRVYIHPFHL; Angiotensin-1; UniProt P01019 25-34, looked up) | do not interact with GC-A receptors
substance P | do not interact with GC-A receptors
melanocyte-stimulating hormone [α-MSH] | do not interact with GC-A receptors
